Columns and labels:
Experiment in all cases: flow cytometry (Mock 2.5)
[1] = biological target: SARS-CoV-2 δ variant spike protein, cell-expressed (SARS-CoV-2)
ε (SARS-CoV-2) = biological target: ε (SARS-CoV-2)
ι (SARS-CoV-2) = biological target: ι (SARS-CoV-2)
α (SARS-CoV-2) = biological target: α (SARS-CoV-2)
γ (SARS-CoV-2) = biological target: γ (SARS-CoV-2)
β (SARS-CoV-2) = biological target: β (SARS-CoV-2)
κ (SARS-CoV-2) = biological target: κ (SARS-CoV-2)

Sequence of Adintrevimab (antibody) (VH): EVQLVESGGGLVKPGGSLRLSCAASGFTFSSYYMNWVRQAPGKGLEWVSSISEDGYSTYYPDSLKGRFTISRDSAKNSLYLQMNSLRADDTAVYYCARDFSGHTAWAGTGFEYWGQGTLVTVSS
Sequence of Adintrevimab (antibody) (VL): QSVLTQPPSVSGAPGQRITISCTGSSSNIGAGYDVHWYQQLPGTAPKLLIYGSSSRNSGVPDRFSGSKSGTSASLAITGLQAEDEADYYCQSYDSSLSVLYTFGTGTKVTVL

**Q.** For Adintrevimab (antibody), which log10 ΔgMFI [1] is on record?
**A.** 4.5

**Q.** What about the log10 ΔgMFI (ε (SARS-CoV-2)) of the same substance?
**A.** 4.5

**Q.** And the log10 ΔgMFI (ι (SARS-CoV-2))?
**A.** 4.9

**Q.** What about the log10 ΔgMFI (α (SARS-CoV-2)) of the same substance?
**A.** 4.3

**Q.** And the log10 ΔgMFI (γ (SARS-CoV-2))?
**A.** 4.5

**Q.** And the log10 ΔgMFI (β (SARS-CoV-2))?
**A.** 3.9

**Q.** And the log10 ΔgMFI (κ (SARS-CoV-2))?
**A.** 4.8

**Q.** How did the log10 ΔgMFI [1] turn out when ETE (antibody) was run?
**A.** 4.5

**Q.** And the log10 ΔgMFI (ε (SARS-CoV-2))?
**A.** 4.5

**Q.** And the log10 ΔgMFI (ι (SARS-CoV-2))?
**A.** 4.8

**Q.** And the log10 ΔgMFI (α (SARS-CoV-2))?
**A.** 4.2

**Q.** And the log10 ΔgMFI (γ (SARS-CoV-2))?
**A.** 2.5

**Q.** What about the log10 ΔgMFI (β (SARS-CoV-2)) of the same substance?
**A.** 2.5

**Q.** And the log10 ΔgMFI (κ (SARS-CoV-2))?
**A.** 4.7

**Q.** For Cilgavimab (antibody), which log10 ΔgMFI (ι (SARS-CoV-2)) is on record?
**A.** 4.9

**Q.** What about the log10 ΔgMFI (α (SARS-CoV-2)) of the same substance?
**A.** 4.4

**Q.** What about the log10 ΔgMFI (γ (SARS-CoV-2)) of the same substance?
**A.** 4.7

**Q.** What about the log10 ΔgMFI (κ (SARS-CoV-2)) of the same substance?
**A.** 4.7

**Q.** What does the source list for TIX (antibody)?
**A.** log10 ΔgMFI [1]: 4.7; log10 ΔgMFI (ε (SARS-CoV-2)): 4.7; log10 ΔgMFI (ι (SARS-CoV-2)): 4.9; log10 ΔgMFI (α (SARS-CoV-2)): 4.5; log10 ΔgMFI (γ (SARS-CoV-2)): 4.6; log10 ΔgMFI (β (SARS-CoV-2)): 3.9; log10 ΔgMFI (κ (SARS-CoV-2)): 4.9

**Q.** Which results are given for CAS (antibody)?
**A.** log10 ΔgMFI [1]: 4.6; log10 ΔgMFI (ε (SARS-CoV-2)): 4.6; log10 ΔgMFI (ι (SARS-CoV-2)): 4.9; log10 ΔgMFI (α (SARS-CoV-2)): 4.4; log10 ΔgMFI (β (SARS-CoV-2)): 3.1; log10 ΔgMFI (κ (SARS-CoV-2)): 4.9

**Q.** How did the log10 ΔgMFI [1] turn out when BAM (antibody) was run?
**A.** 2.5

**Q.** And the log10 ΔgMFI (ι (SARS-CoV-2))?
**A.** 2.5

**Q.** And the log10 ΔgMFI (α (SARS-CoV-2))?
**A.** 4.4

**Q.** What about the log10 ΔgMFI (γ (SARS-CoV-2)) of the same substance?
**A.** 2.5

**Q.** And the log10 ΔgMFI (β (SARS-CoV-2))?
**A.** 2.5

**Q.** What about the log10 ΔgMFI (κ (SARS-CoV-2)) of the same substance?
**A.** 3.5
